Results from IntAct's records for PubMed 15020681.

B1: "Na(+)/H(+) exchange regulatory cofactor NHE-RF1" (Homo sapiens), O14745 (parent)
chain: MSADAAAGAPLPRLCCLEKGPNGYGFHLHGEKGKLGQYIRLVEPGSPAEKAGLLAGDRLVEVNGENVEKETHQQVVSRIRAALNAVRLLVVDPETDEQLQKLGVQVREELLRAQEAPGQAEPPAAAEVQGAGNENEPREADKSHPEQRELRPRLCTMKKGPSGYGFNLHSDKSKPGQFIRSVDPDSPAEASGLRAQDRIVEVNGVCMEGKQHGDVVSAIRAGGDETKLLVVDRETDEFFKKCRVIPSQEHLNGPLPVPFTNGEIQKENSREALAEAALESPRPALVRSASSDTSEELNSQDSPPKQDSTAPSSTSSSDPILDFNISLAMAKERAHQKRSSKRAPQMDWSKKNELFSNL

Variants of: B1
Conditions: with moes_human MSN

effect of a mutation on the interaction | Variant
decreasing interaction | F355R
